Legend:
[1] = target: HIV-1 gp41 (HXB2 strain) (HIV-1 HXB2) (UniProt P04578); test: cell-based or functional assay
[2] = target: HIV-1 gp41 (JRFL strain) (HIV-1 JRFL); test: cell-based or functional assay

## Fuzeon (from UniProt P04578 638-673) (peptide)
[1]
  IC50 (HXB2), pseudovirion entry: 3.7 nM
  IC50 (HXB2), single-cycle viral infectivity assay: 3.7 nM
[2]
  IC50 (JRFL), pseudovirion entry: 5 nM
